These are literature values, as cited in article PMC5672155.

Targets include Sec61α (Homo sapiens) (UniProt P61619); Sec63 (Homo sapiens) (UniProt Q9UGP8); LC3 (Homo sapiens) (UniProt Q9GZQ8); Sec62 (Homo sapiens) (UniProt Q99442).
Chain of UniProt Q99442 (Q99442 whole entry): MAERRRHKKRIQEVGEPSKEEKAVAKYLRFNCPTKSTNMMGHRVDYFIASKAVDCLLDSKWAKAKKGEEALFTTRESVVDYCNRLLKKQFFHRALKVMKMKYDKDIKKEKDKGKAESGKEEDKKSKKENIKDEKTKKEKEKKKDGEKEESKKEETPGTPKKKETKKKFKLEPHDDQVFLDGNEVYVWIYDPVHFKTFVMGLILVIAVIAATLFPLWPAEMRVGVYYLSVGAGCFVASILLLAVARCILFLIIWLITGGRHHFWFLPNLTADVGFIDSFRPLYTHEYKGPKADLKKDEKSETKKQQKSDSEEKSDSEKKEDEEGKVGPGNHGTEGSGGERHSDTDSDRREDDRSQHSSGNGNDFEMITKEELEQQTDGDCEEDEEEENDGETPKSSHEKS
Chain of UniProt P61619 (P61619 whole entry): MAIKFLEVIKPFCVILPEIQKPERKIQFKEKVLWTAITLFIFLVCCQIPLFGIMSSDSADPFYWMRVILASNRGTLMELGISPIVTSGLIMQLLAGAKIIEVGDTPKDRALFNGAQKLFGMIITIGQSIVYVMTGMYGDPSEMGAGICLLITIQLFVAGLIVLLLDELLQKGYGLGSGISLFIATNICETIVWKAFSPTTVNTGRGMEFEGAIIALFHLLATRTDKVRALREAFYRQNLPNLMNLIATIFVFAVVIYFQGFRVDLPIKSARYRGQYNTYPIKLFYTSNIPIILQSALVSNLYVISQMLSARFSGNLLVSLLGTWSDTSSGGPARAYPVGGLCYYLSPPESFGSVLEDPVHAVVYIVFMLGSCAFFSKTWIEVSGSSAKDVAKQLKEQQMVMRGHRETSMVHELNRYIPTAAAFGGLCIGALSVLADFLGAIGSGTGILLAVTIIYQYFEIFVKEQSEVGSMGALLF

What is called Kd is the free concentration of one partner at which half of the binding sites on the other are occupied at equilibrium, for simple one-to-one binding. Take BiP (from UniProt P11021): the Kd was 500 µM with Sec61α (Homo sapiens) and 5 µM with Sec63 (Homo sapiens).
On to Sec62 (from UniProt Q99442), for which, in the data set with LC3 (Homo sapiens), the Kd is 20 µM.
As to Sec63 (from UniProt Q9UGP8), the Kd with Sec62 (Homo sapiens) was 0.005 µM.
